These results are taken from patent publication US8003345B2, “Antioxidant pharmaceutical compound, method for producing polypeptide and method of cure” (Institute of Cell Biophysics Russian Academy of Sciences, priority 2002, dated 2011).

Series [1] can be described thus: Distribution of labeled peroxiredoxin in the organism after intravenous injection. The class given is in vivo, rat. The note with it: 10 mg per animal, fluorescein-labeled. The method, then: For detecting the distribution of exogenous peroxiredoxin Prx VI in different tissues of the organism, a recombinant Prx V1hum labeled with fluorescein isocyanate was introduced into the rat's vein in an amount of 10 mg per animal. After definite periods of time the animals were sacrificed, the tissues of different organs were isolated, and luminescent analysis of the obtained samples was carried out. […] Thus, the method of introducing peroxiredoxin Prx VI by intravenous injection makes it possible to increase its content in almost all the tissues of the organism.

The test system of series [2] is tracheal epithelium of rat after burn with vapors of hydrochloric acid. In words: Chemical burn (HCl vapors) of the upper respiratory tract of rat. The class given is in vivo. The method, then:
The therapeutic properties of recombinant peroxiredoxin Prx V1hum in treating the upper respiratory tract of rat 24 hours after a burn were tested on a group of 4 Wistar line rats having a weight of 150-200 grams. The rats were analgized with analgin (100 mg/kg weight) and placed for 10 minutes into an exsiccator saturated with HCl vapors (the exsiccator volume was 10 liters, 20 animals were used). After the chemical burn, the rats were maintained for a definite period of time (40 min, 6 hrs, 1 day, 2 days, 14 days, 30 days), then narcotized with hexenal (300 mg/kg weight), and a sample of the tracheal epithelial tissue was isolated. For histochemical investigations the isolated sample was placed into a fixing solution containing 2% of formaldehyde and 0.5% of glutaraldehyde. The tissue was dehydrated .by sequential routing through ethyl alcohol with increasing concentration (40-100%). The tissue was embedded into LR white resin. The resin was polymerized at room temperature. 0.5 em-thick sections were made on an LKB ultratome (Sweden), using glass knives. The sections were stained with a hematoxylin-eosine and analyzed under a light microscope.
Maximum degradation of the epithelium is observed 24 hours after the burn, the ciliated cells which provide the mucus flow in the trachea being almost absent. Two weeks later a partial restoration of the ciliated cells is observed. […]

For a further series, the system named is oxyhemoglobin. In words: Protection of oxyhemoglobin from the action of ionizing radiation. The class given is biochemical. Conditions: about 50 μg/ml added before irradiation; 10 Gy; registered at 635 nm. An excerpt: The antiradiation properties of Prx Vlhum are investigated both in vitro, by investigating a solution of hemoglobin, and in vivo on animals. Irradiation of a solution of hemoglobin (see Example 10) leads to essential changes in its structure (appearance of peaks at 635 nm and an increase of light scattering), this being indicative of conversion of oxyhemoglobin to methemoglobin, followed by the aggregation thereof.
For checking the possibility of protecting biological macromolecules from destruction caused by ionizing radiation with the aid of peroxiredoxin, we have investigated the characteristics of irradiated oxyhemoglobin in control and in the presence of peroxiredoxin. In control we used a solution of oxyhemoglobin (0.16 D at 540 nm) in 0.1 M of Tris-HCl (pH 7.0) which was irradiated in a GUBE apparatus with the total exposure dose of 10 Gy. As the radioprotector peroxiredoxin Prx V1hum was used in different concentrations (5-100 μg/ml) in the presence of 50 μM of dithiothreitol. The formation of oxidized forms of oxyhemoglobin (methemoglobin) was registered at 635 nm, and aggregation of methemoglobin was registered at 700 nm.

The next series relates to skin cuts of rats. Kind of series: Treating skin wounds (cuts) in rats. The series is classed as in vivo, rat. The note with it: in 5 days; 0.5 mg/ml in 0.15 M NaCl, bandages changed once a day; against control; FIG. 10. The method, then: Rats were preliminarily narcotized by intraperitoneal introduction of hexenal (70 mg/kg). The animals were fixed on an operating table, and then 2-3 mm deep and 1 cm long cuts were made in the skin of both paws with the help of a razor blade. Control cuts were irrigated with physiological solution and a bactericidal plaster was applied; in the case of using peroxiredoxin, the wound was irrigated with a solution of recombinant Prx Vlhum or of its fragment ΔPrx Vlhum in 0.15 M NaCl in 0.5 mg/ml concentration, and a gauze bandage soaked with the same solutions was applied. The bandages were changed once a day.

Series [3] relates to Wistar line rats subjected to gamma-irradiation. Kind of series: Survival of rats after gamma-irradiation at a dose of 6 Gy. Conditions: for number of rats survived: groups of 6 rats, intravenous before irradiation.
Protocol: The radioprotector properties of peroxiredoxin in experiments in vivo are determined on an example of protecting animals from the action of gamma-irradiation in a sublethal dose with an intensity of 6 Gy.
Simultaneous irradiation of all animals (Wistar line rats weighing 200 grams) was carried out on a GUBE apparatus. The exposure dose was 6 Gy. The rats were divided into two groups. The first group of the animals (n=6) was used for control. The animals of the second group (n=6) 30-60 minutes before the irradiation were administered intravenously with 1 mg of peroxiredoxin Prx VI (1 ml of physiological solution at the peroxiredoxin concentration of 1 μg/ml). After the irradiation the animals were kept in common premises with sufficient amount of food, illumination and ventilation. For histological investigation animals with symptoms of worsened general conditions were chose from each group.
Series [4] in a line: Cytotoxicity: number of live line L929 cells. The class given is cell-based, human. Conditions: 0.1-10 μg/ml concentration; Trypan stain. The procedure:
(§1) The cytotoxicity is determined from the influence of recombinant Prx V1hum or of natural rat Prx V1rat on the level of proliferation of line L929 human lymphoblastoma cells and of T-lymphocytes from the spleen of line NRRI rats stimulated with concavalin A.
(§2) Cells of two lines with the concentration of 10^4 cells/ml medium were cultivated in RPMI 1640 containing 5% of bovine fetal serum. The stimulation of T-lymphocytes was carried out with the 0.1 μg/ml concentration of concavalin. In the case of T-lymphocytes the proliferation level was determined from the inclusion of ^3H-thymidine. The number of live line L929 cells was determined in a 96-cell plate with the aid of a Trypan stain, followed by scanning on a Multiscan multichannel photometer (LKB, Sweden).

The test system of series [5] is T-lymphocytes from the spleen of line NRRI rats stimulated with concavalin A. Kind of series: Proliferation of concanavalin A-stimulated T-lymphocytes (3H-thymidine inclusion). The series is classed as cell-based. The note with it: 0.1-1.0 mg/ml concentration, against cells stimulated only with concavalin A. The method, then: as §1, §2

B1: Prx VIhum: recombinant full-size human peroxiredoxin Prx VI, 224 amino acids (SEQ ID NO: 1), produced in E.coli (protein)
chain: MPGGLLLGDVAPNFEANTTVGRIRFHDFLGDSWGILFSHPRDFTPVCTTELGRAAKLAPEFAKRNVKLIALSIDSVEDHLAWSKDINAYNCEEPTEKLPFPIIDDRNRELAILLGMLDPAEKDEKGMPVTARVVFVFGPDKKLKLSILYPATTGRNFDEILRVVISLQLTAEKRVATPVDWKDGDSVMVLPTIPEEEAKKLFPKGVFTKELPSGKKYLRYTPQP
With B1, the distribution among organs result in series [1] (15 minutes after intravenous injection, luminescent analysis) is “uniformly distributes among all the organs of the rat, including the brain”. In series [1] (after intravenous injection), the “amount in bone marrow” value was “small, compared with other tissues”. Further, the “regeneration of tracheal epithelium (curative effect)” value in series [2] (14 days after burn, application started 24 hours after burn, once a day during 5 days, FIG. 7) was “almost complete regeneration of the ciliary cells of the epithelium”. The “preservation of tracheal epithelial cells (protector effect)” value in series [2] (application 1 hour after the burn, epithelium 24 hours after chemical burn, FIG. 6) is listed as “Almost complete preservation of all epithelial cells”. Also, in the series with oxyhemoglobin, the “concentration of oxidized forms of hemoglobin” value is reported as “lowered almost to zero”. In the series with skin cuts of rats, the “healing of the wound” value is listed as “almost complete healing of the wound”. In addition, the “number of rats survived” value worked out at 6 in series [3] (3 months, 6 Gy); 5 in series [3] (6 months, 6 Gy); 4 in series [3] (12 months, 6 Gy); 4 in series [3] (15 months, 6 Gy). For the same molecule, in series [3] (administered before irradiation, 6 Gy, versus control group), the “mortality of the rats” value is “essentially lower than in the control group”. In addition, the “general condition of the survived animals” value in series [3] (one year after the irradiation, compared with the control group) is “differed markedly in favor of the second group”. The “number of irradiation-associated malignant neoplasms” value in series [3] (single injection into a vein 30 minutes before irradiation, 6 Gy) is on record as “diminish the number of irradiation -associated malignant neoplasms”. Moreover, the “effect on the number of live line L929 cells” value in series [4] was “did not produce any effect”. Also, the “cell proliferation level of T-lymphocytes stimulated with concavalin A” value in series [5] was “increased approximately twofold”.
